Results: patent US11360104, “Microbial-based biosensors” (TRUSTEES OF BOSTON UNIVERSITY)

Assays:
[1] = target: T1, PinR (AIY20223.2, TetR family) (Pimelobacter simplex); test: FRET; progesterone for half-maximal DNA release; QD/TF/DNA 1/4/18; conditions: tags: C-terminal His6, self-assembled on CdSe/CdS/ZnS quantum dot; label: Cy5 at 5' and 3'
T1 chain: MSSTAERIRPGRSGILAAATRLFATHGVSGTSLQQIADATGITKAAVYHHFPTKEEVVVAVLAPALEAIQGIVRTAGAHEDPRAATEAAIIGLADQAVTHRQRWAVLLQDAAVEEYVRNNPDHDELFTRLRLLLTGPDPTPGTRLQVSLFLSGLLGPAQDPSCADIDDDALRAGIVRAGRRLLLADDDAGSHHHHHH

[2] = target: T2, TetRd-6His (UniProt P0ACT4 P0ACT4:2-218); test: FRET; aTc for half-maximal DNA release; lower DNA affinity than TetRc; 5 mM MgCl2; conditions: tags: His6, on quantum dot QD2; chain copies: 2; label: Cy5 at 5' and 3' of reverse strand
T2 sequence (P0ACT4 2-218, one chain of several): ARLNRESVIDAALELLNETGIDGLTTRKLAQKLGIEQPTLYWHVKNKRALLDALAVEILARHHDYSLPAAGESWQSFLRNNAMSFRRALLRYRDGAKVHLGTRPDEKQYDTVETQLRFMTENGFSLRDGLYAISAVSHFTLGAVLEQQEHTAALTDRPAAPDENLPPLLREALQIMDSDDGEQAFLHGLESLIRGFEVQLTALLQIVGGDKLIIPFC

[3] = target: T3, TetRc-6His (UniProt P03039 P03039:1-219); test: FRET; aTc concentration for half-maximal DNA release; 5 mM MgCl2; conditions: tags: His6, on quantum dot QD1; chain copies: 2; label: Cy5 at 5' and 3' of reverse strand
T3 chain: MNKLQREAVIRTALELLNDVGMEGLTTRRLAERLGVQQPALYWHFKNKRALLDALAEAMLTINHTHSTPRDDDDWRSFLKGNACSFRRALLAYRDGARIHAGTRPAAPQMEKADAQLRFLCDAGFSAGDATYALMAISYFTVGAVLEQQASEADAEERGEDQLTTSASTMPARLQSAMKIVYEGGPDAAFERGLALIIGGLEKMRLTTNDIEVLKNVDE
Protocol: (§1) At higher concentrations of aTc, binding of the TF and DNA is disrupted, reducing FRET, thereby increasing donor emission and reducing acceptor emission. Spectra are background subtracted to eliminate the effects of direct acceptor excitation. FIG. 3D-3F show the ratio of acceptor fluorescence intensity to donor fluorescence intensity as a function of aTc concentration. […] Sensor 1 was prepared with a 1:1:3 ratio of tdTomato:TF:DNA, while sensors 2 and 3 were prepared with a 1:4:18 ratio of QD:TF:DNA. tdTomato (200 nM) and QD (50 nM) concentrations were selected to keep TF concentration constant at 200 nM. Data are mean±standard deviation for n=3.
(§2) A TF to DNA ratio was chosen for each sensor (1:3 for Sensor 1, 1:4.5 for Sensors 2 and 3) and kept constant for subsequent experiments testing sensor sensitivity to aTc. Photoluminescence spectra were measured from sensors with increasing concentrations of aTc yielded changes in the ratio between the acceptor emission and donor emission (F_A/F_D). With increasing concentrations of aTc, F_A/F_D values decreased indicating unbinding of the DNA from the TF resulting in an increase in donor emission and decrease in acceptor emission (FIG. 3A-F). No changes were observed when aTc was titrated into a solution of non-binding donor-acceptor pairs (scrambled controls). […]

[4] = target: T4, TetRc-tdTomato (UniProt P03039 P03039:1-219); test: as above; conditions: tags: tdTomato fusion, Strep-tag purified; chain copies: 2; label: Cy5 at 5' and 3' of reverse strand
T4 chain: T3 chain
Protocol: as §1, §2

[5] = target: T1, PinR (AIY20223.2, TetR family); test: FRET; progesterone concentration for half-maximal DNA release; QD/TF/DNA 1/4/18; described as strongest binding sequence; conditions: tags: C-terminal His6, self-assembled on CdSe/CdS/ZnS quantum dot; label: Cy5 at 5' and 3'
[6] = target: T4, TetRc-tdTomato; test: FRET; only collisional quenching; conditions: tags: tdTomato fusion, Strep-tag purified; chain copies: 2; label: Cy5 at 5' and 3' of reverse strand
Protocol: (§3) For QD-based nanoconstructs, the his-tagged proteins self-assemble to the QD surface stoichiometrically according to the mixture ratio with a Poissonian distribution of proteins on the QD surface was used. […] Four his6-TetR monomers were used per QD for the titrations of Sensors 2 and 3 (FIG. 2A-C). […] Upon increasing DNA concentration, there is increased donor quenching in all three cases.
(§4) FRET assays. The FRET response of each sensor as a function of the donor-acceptor ratio was tested by titration of the acceptor while the concentration of the donor was kept constant. Briefly, the sensors were prepared in a solution of TBS+0.2% (w/v) BSA and 1× binding buffer (20 mM Tris-HCl, 5 mM MgCl_2, 5% glycerol, 50 ng/µl salmon sperm DNA). For Sensor 1, the final concentration of tetR-tdTomato was kept constant at 200 nM, while Cy5-modified DNA were titrated to yield donor-acceptor ratios ranging from 0-9. The sensor solution was pipetted into wells of a black, non-binding 384-well plate (Corning) with a final volume of 60 µl. For triplicate measurements, each of the above solutions were prepared with a final volume of 180 µl in microcentrifuge tubes and pipetted into 3 separate wells of 60 µl each.

[7] = target: T3, TetRc-6His; test: FRET; only collisional quenching; conditions: tags: His6, on quantum dot QD1; chain copies: 2; label: Cy5 at 5' and 3' of reverse strand
Protocol: as §3, §4
(§5) For Sensors 2 and 3, QDs and tetR-6His were mixed at a 1:4 ratio with a final QD concentration of 50 nM for self-assembly of the tetR-6His to the surface of the QDs[21]. […]

[8] = target: T2, TetRd-6His; test: FRET; only collisional quenching; conditions: tags: His6, on quantum dot QD2; chain copies: 2; label: Cy5 at 5' and 3' of reverse strand
Protocol: as §3, §4, §5

B1: DNA4 (13,15-T,T) (dsDNA)
DNA 1: CCTTAACTAGCCGTTCTGTTAGTTATTC
DNA 2: GAATAACTAACAGAACGGCTAGTTAAGG
[1]
  IC50: 150 nM

B2: DNA2 (IG.AIY19519.15) (dsDNA)
DNA 1: GCCTAACTAGCCGATCGGCTAGTCATTC
DNA 2: GAATGACTAGCCGATCGGCTAGTTAGGC
[1]
  IC50: 370 nM

B3: TetO 28 bp (dsDNA)
DNA 1: GTCATCCCTATCATTGATAGAGATACTG
DNA 2: CAGTATCTCTATCAATGATAGGGATGAC
[2]
  EC50: 133 nM
[3]
  EC50: 699 nM
[4]
  EC50: 218 nM

B4: DNA3 (AIY20222.2) (dsDNA)
DNA 1: GCCTAACTAGCCGTTCGGCAAGTAATTC
DNA 2: GAATTACTTGCCGAACGGCTAGTTAGGC
[1]
  IC50: 290 nM

B5: DNA1 (AIY20223.2) (dsDNA)
DNA 1: GCCTAACTAGCCGTTCGGCTAGTTATTC
DNA 2: GAATAACTAGCCGAACGGCTAGTTAGGC
[5]
  IC50: 460 nM

B6: Scrambled TetO control (dsDNA)
DNA 1: TCGTGAAACCGAGCGAGGGACACGCACA
DNA 2: TGTGCGTGTCCCTCGCTCGGTTTCACGA
[6]
  binding result: no binding
[7]
  binding result: no binding
[8]
  binding result: no binding
